Source: the supplement of paper PMC9112550, “Optimization of the antimicrobial peptide Bac7 by deep mutational scanning” (BMC Biology, 2022)

test system: Escherichia coli TOP10; experiment: shrunken log2 fold change of peptide-encoding DNA abundance (4.5 h post-induction vs induction); higher = less antimicrobial activity (less host growth inhibition); details: time post-induction: 4.5 h; library: site-saturation at positions 5, 18, 19, 20
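Also: peptides expressed intracellularly from a pBAD plasmid library in pooled LB shake-flask culture, induced with 0.3% L-arabinose, DNA abundance read by NGS, three biological replicates, DESeq2 with apeglm shrinkage.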

Sequence | shrunken log2 fold change
RRIRMRPPRLPRPRPRPRIGPRP | 0.396
RRIRMRPPRLPRPRPRPRKWPRP | 0.363
RRIRMRPPRLPRPRPRPRMQPRP | 0.598
RRIRMRPPRLPRPRPRPRMVPRP | 0.125
RRIRMRPPRLPRPRPRPRNHPRP | 0.263
RRIRMRPPRLPRPRPRPRNSPRP | -0.294
RRIRMRPPRLPRPRPRPRNYPRP | -0.0232
RRIRMRPPRLPRPRPRPRPIPRP | 0.754
RRIRMRPPRLPRPRPRPRQDPRP | 0.271
RRIRMRPPRLPRPRPRPRQQPRP | 0.854
RRIRMRPPRLPRPRPRPRRAPRP | 1.55
RRIRMRPPRLPRPRPRPRREPRP | 1.27
RRIRMRPPRLPRPRPRPRRFPRP | 0.339
RRIRMRPPRLPRPRPRPRRMPRP | 0.73
RRIRMRPPRLPRPRPRPRSCPRP | 0.274
RRIRMRPPRLPRPRPRPRSNPRP | 0.13
RRIRMRPPRLPRPRPRPRTIPRP | 0.229
RRIRMRPPRLPRPRPRPRTTPRP | 0.714
RRIRMRPPRLPRPRPRPRVSPRP | 0.0315
RRIRMRPPRLPRPRPRPRVTPRP | 0.467

Sequence | shrunken log2 fold change
RRIRMRPPRLPRPRPRPRWIPRP | 0.00451
RRIRMRPPRLPRPRPRPRWMPRP | 0.315
RRIRMRPPRLPRPRPRPRYHPRP | -0.186
RRIRMRPPRLPRPRPRPSADPRP | 3.21
RRIRMRPPRLPRPRPRPSCWPRP | 0.594
RRIRMRPPRLPRPRPRPSDMPRP | 0.0637
RRIRMRPPRLPRPRPRPSEGPRP | -0.00192
RRIRMRPPRLPRPRPRPSELPRP | 0.12
RRIRMRPPRLPRPRPRPSFNPRP | -0.535
RRIRMRPPRLPRPRPRPSFWPRP | 0.459
RRIRMRPPRLPRPRPRPSGLPRP | 0.0901
RRIRMRPPRLPRPRPRPSGRPRP | 0.556
RRIRMRPPRLPRPRPRPSGTPRP | 0.215
RRIRMRPPRLPRPRPRPSGYPRP | -0.0299
RRIRMRPPRLPRPRPRPSMIPRP | 0.229
RRIRMRPPRLPRPRPRPSMLPRP | 0.0158
RRIRMRPPRLPRPRPRPSNNPRP | -0.0389
RRIRMRPPRLPRPRPRPSPCPRP | 0.18
RRIRMRPPRLPRPRPRPSQCPRP | -0.112
RRIRMRPPRLPRPRPRPSQHPRP | 0.136

Sequence | shrunken log2 fold change
RRIRMRPPRLPRPRPRPSQRPRP | 0.158
RRIRMRPPRLPRPRPRPSSAPRP | 0.514
RRIRMRPPRLPRPRPRPSTCPRP | -0.0128
RRIRMRPPRLPRPRPRPSVLPRP | 0.0464
RRIRMRPPRLPRPRPRPSWNPRP | -0.15
RRIRMRPPRLPRPRPRPSWPPRP | 0.144
RRIRMRPPRLPRPRPRPTAAPRP | 2.79
RRIRMRPPRLPRPRPRPTACPRP | 1.02
RRIRMRPPRLPRPRPRPTAEPRP | 2.75
RRIRMRPPRLPRPRPRPTAKPRP | 0.255
RRIRMRPPRLPRPRPRPTCCPRP | 0.213
RRIRMRPPRLPRPRPRPTCWPRP | 0.816
RRIRMRPPRLPRPRPRPTDDPRP | 0.637
RRIRMRPPRLPRPRPRPTEDPRP | 1.9
RRIRMRPPRLPRPRPRPTFCPRP | 0.282
RRIRMRPPRLPRPRPRPTFFPRP | 0.229
RRIRMRPPRLPRPRPRPTFVPRP | 0.134
RRIRMRPPRLPRPRPRPTGAPRP | 1.25
RRIRMRPPRLPRPRPRPTHFPRP | 0.86
RRIRMRPPRLPRPRPRPTHGPRP | 0.188
